Experimental data published in article PMC5737217 (Nucleic Acids Research, 2017).

What was measured:
[1] = biological target: tSTATcc-N460H (UniProt P42224 132-713, N460H;A656C;N658C); test: Spec-seq
[2] = biological target: tSTATcc (truncated STAT1, C-C dimer) (UniProt P42224 132-713, A656C;N658C); test: Spec-seq
[3] = biological target: the molecule itself; test: non-reducing SDS-PAGE

Chain of tSTATcc-N460H (P42224 132-713 N460H/A656C/N658C): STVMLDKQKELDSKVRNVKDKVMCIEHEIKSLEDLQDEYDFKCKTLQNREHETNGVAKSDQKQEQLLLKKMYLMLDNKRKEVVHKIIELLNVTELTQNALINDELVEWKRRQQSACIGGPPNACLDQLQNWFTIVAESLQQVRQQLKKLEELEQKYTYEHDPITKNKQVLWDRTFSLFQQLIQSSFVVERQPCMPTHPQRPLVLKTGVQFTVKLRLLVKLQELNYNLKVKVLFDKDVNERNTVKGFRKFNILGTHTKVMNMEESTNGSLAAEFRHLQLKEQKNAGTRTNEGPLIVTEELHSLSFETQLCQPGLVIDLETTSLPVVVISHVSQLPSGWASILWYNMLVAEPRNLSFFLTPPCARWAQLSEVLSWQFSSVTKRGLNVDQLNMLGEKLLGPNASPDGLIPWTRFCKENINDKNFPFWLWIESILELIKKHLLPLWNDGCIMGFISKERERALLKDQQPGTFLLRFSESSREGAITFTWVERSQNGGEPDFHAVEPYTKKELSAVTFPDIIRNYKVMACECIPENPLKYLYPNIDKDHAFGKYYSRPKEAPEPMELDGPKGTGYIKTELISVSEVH

B1: 1C_GAS (dsDNA)
DNA 1: GCTGCCACTAGAGTTTTTTCGGGAAAAGATCATCAAGAGCACACGGG
DNA 2: CCCGTGTGCTCTTGATGATCTTTTCCCGAAAAAACTCTAGTGGCAGC
With B1 the binding signal [1] was 1.8 kT (ddG vs 2C_GAS) and the binding signal [2] was 1.6 kT (ddG vs 2C_GAS).

B2: 0T_GAS (dsDNA)
DNA 1: GCTGCCACTAGAGTTTTTTTAGGAAAAGATCATCAAGAGCACACGGG
DNA 2: CCCGTGTGCTCTTGATGATCTTTTCCTAAAAAAACTCTAGTGGCAGC
With B2 the binding signal [1] was 1.8 kT (ddG vs 2C_GAS) and the binding signal [2] was 1.5 kT (ddG vs 2C_GAS).

B3: 1T_GAS (dsDNA)
DNA 1: GCTGCCACTAGAGTTTTTCTAGGAAAAGATCATCAAGAGCACACGGG
DNA 2: CCCGTGTGCTCTTGATGATCTTTTCCTAGAAAAACTCTAGTGGCAGC
With B3 the binding signal [1] was 1.7 kT (ddG vs 2C_GAS) and the binding signal [2] was 1.7 kT (ddG vs 2C_GAS).

B4: 2T_GAS (dsDNA)
DNA 1: GCTGCCACTAGAGTTTTCCTAGGAAAAGATCATCAAGAGCACACGGG
DNA 2: CCCGTGTGCTCTTGATGATCTTTTCCTAGGAAAACTCTAGTGGCAGC
With B4 the binding signal [1] was 1.7 kT (ddG vs 2C_GAS) and the binding signal [2] was 1.9 kT (ddG vs 2C_GAS).

B5: 3C_GAS (dsDNA)
DNA 1: GCTGCCACTAGAGTTTTCCCGGGAAAAGATCATCAAGAGCACACGGG
DNA 2: CCCGTGTGCTCTTGATGATCTTTTCCCGGGAAAACTCTAGTGGCAGC
In the case of B5, the binding signal [1] is reported as 1.6 kT (ddG vs 2C_GAS) and the binding signal [2] is reported as 1.6 kT (ddG vs 2C_GAS).

B6: tSTATcc (truncated STAT1α, amino acids 132–713, with A656C and N658C) (domain or fragment, UniProt P42224 132-713, looked up)
chain: STVMLDKQKELDSKVRNVKDKVMCIEHEIKSLEDLQDEYDFKCKTLQNREHETNGVAKSDQKQEQLLLKKMYLMLDNKRKEVVHKIIELLNVTELTQNALINDELVEWKRRQQSACIGGPPNACLDQLQNWFTIVAESLQQVRQQLKKLEELEQKYTYEHDPITKNKQVLWDRTFSLFQQLIQSSFVVERQPCMPTHPQRPLVLKTGVQFTVKLRLLVKLQELNYNLKVKVLFDKDVNERNTVKGFRKFNILGTHTKVMNMEESTNGSLAAEFRHLQLKEQKNAGTRTNEGPLIVTEELHSLSFETQLCQPGLVIDLETTSLPVVVISNVSQLPSGWASILWYNMLVAEPRNLSFFLTPPCARWAQLSEVLSWQFSSVTKRGLNVDQLNMLGEKLLGPNASPDGLIPWTRFCKENINDKNFPFWLWIESILELIKKHLLPLWNDGCIMGFISKERERALLKDQQPGTFLLRFSESSREGAITFTWVERSQNGGEPDFHAVEPYTKKELSAVTFPDIIRNYKVMACECIPENPLKYLYPNIDKDHAFGKYYSRPKEAPEPMELDGPKGTGYIKTELISVSEVH
In the case of B6, the “stoichiometry N” value [3] is reported as 2.
